# Tests used:
# Assay in all cases: split reporter
# [1] = target: T1, calcitonin-like receptor (CLR), smBit-tagged Target construct (UniProt Q16602 23-461)
# [2] = target: T1, calcitonin-like receptor (CLR), …; remark: listed apart in the source
# [3] = target: sphingosine 1-phosphate receptor 1 (S1PR1), smBit-tagged Target construct (UniProt P21453 1-347)
# sphingosine 1-phosphate receptor 1 (S1PR1), smBit-tagged Target construct, sequence (P21453 1-347): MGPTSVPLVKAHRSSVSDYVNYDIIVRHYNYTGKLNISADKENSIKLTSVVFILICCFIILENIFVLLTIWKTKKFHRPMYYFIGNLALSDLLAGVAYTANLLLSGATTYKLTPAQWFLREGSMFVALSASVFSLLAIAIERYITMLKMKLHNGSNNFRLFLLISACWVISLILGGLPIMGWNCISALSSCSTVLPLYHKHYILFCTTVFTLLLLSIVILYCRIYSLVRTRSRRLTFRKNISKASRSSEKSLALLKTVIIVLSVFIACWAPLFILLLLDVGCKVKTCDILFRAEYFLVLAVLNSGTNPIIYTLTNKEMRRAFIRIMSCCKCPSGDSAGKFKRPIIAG
# T1 sequence (Q16602 23-461): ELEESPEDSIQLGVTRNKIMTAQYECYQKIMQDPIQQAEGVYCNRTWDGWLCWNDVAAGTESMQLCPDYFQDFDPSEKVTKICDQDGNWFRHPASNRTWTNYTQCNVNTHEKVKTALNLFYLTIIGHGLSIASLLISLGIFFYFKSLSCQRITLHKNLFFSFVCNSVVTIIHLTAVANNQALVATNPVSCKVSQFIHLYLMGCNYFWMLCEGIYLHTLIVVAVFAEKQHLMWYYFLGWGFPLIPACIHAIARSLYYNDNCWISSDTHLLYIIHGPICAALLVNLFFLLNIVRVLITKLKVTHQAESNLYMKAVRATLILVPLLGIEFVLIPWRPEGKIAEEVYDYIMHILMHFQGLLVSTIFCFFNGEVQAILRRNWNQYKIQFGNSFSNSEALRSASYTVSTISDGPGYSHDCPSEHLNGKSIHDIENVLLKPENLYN
binder,measurement,setting,value
"receptor activity-modifying protein 1 (RAMP1), LgBit-tagged Binder construct (natural protein) CQEANYGALLRELCLTQFQVDMEAVGETLWCDWGRTIRSYRELADCTWHMAEKLGCFWPNAEVDRFFLAVHGRYFRSCPISGRAVRDPPGSILYPFIVVPITVTLLVTALVVWQSKRTEGIV",fold change of expression-normalised NanoBit over CLR+CD8a (1 ng Binder DNA),[1],2.7 ± 0.2 fold
same,fold change of expression-normalised NanoBit over CLR+CD8a (5 ng Binder DNA),[1],2.9 ± 0.1 fold
same,fold change of expression-normalised NanoBit over CLR+CD8a (10 ng Binder DNA),[1],2.7 ± 0.1 fold
same,fold change of expression-normalised NanoBit over CLR+CD8a (20 ng Binder DNA),[1],2.1 ± 0.1 fold
same,fold change of NanoBit luminescence over CLR+CD8a (1 ng Binder DNA),[2],13 ± 1.45 fold
same,fold change of NanoBit luminescence over CLR+CD8a (20 ng Binder DNA),[2],2.16 ± 0.04 fold
"LYPFIVVPITVTLLVTALVVWQSKRTEGIV (domain or fragment, UniProt O60894 119-148, looked up) [InnTag5-RAMP1-TM, LgBit-tagged Binder chimera]",fold reduction of expression-normalised NanoBit relative to WT CLR-RAMP1,[1],2 fold
"LYPFIVVPITVTLLVTALVVWQSKRTEGIV (domain or fragment, UniProt O60894 119-148, looked up) [HALO-RAMP1-TM, LgBit-tagged Binder chimera]",fold reduction of expression-normalised NanoBit relative to WT CLR-RAMP1,[1],2 fold
"CD69 V48F, V49F double mutant, LgBit-tagged Binder construct (natural protein) SENCFVAENSSLHPESGQENDATSPHFSTRHEGSFQVPVLCAVMNFFFITILIIALIALSVGQYNCPGQYTFSMPSDSHVSSCSEDWVGYQRKCYFISTVKRSWTSAQNACSEHGATLAVIDSEKDMNFLKRYAGREEHWVGLKKEPGHPWKWSNGKEFNNWFNVTGSDKCVFLKNTEVSSMECEKNLYWICNKPYK",percent decrease of expression-normalised NanoBit relative to WT CD69,[3],30%

# Reference: article doi:10.1101/2025.06.10.658938 (bioRxiv, 2025)
